Results on 8 molecules are retold here after patent publication US9725518B2, “Antibodies that bind to Jagged 1” (Cancer Research Technology Limited, priority 2013, dated 2017).

In series [1] the target is T1, N1 binding to cell surface expressed hJ1 (Homo sapiens, UniProt P78504).
T1 construct: cell expressed full length human J1 (hJ1; HEK293 transfectants); expressed in transfected cells; host or cells: HEK293
Kind of series: Notch binding blocking assay (FACS): N1 EGF11-13 beads staining human J1-expressing cells. More on the design: key: +: Complete blocking; X: No blocking. The procedure: To functionally identify mAbs with the capacity to disrupt the J1-N1 protein:protein interaction, hybridoma culture supernatants were tested in a FACS-based binding assay. Biotinylated soluble human N1 EGF11-13 recombinant protein was bound to avidin-coated beads and used to stain J1-expressing cells in the presence or absence of each mAb that recognised cell surface hJ1 by FACS. […] The four blocking antibodies of the invention were also able to block the binding of recombinant […] to a biotin-tagged J1 DSL-EGF3 recombinant protein in an ELISA assay (FIG. 1B). […] The four blocking mAbs of the invention were purified from serum-free culture supernatants and equal concentrations of purified antibodies were used to compare their activity in subsequent assays (unless hybridoma supernatant was specified). Sequence conservation across the DSL domain raised the possibility that the J1 mAbs may also be able to bind the Jagged 2 (J2) protein. Antibody binding specificity was initially tested by immunocytochemical labelling of cytospin samples of hJ1 and hJ2 transfectants (FIG. 2). All antibodies stained J1 transfectants but none stained the J2 transfected cells, and J2 expression in the same experiment was confirmed using a commercial anti-J2 antibody. The specificity of the purified mAbs was further investigated in mammalian cells transfected with hJ2, human Delta-like ligand 4 (hDLL4), or mJ1 (FIG. 3). Transfectants were FACS stained with 10 μg/ml of each of the four blocking mAbs.
To test the blocking efficiencies of the J1 mAbs, purified mAbs were titrated to determine the concentration required to block recombinant N1 binding to cell surface expressed hJ1. Beads coated with a bacterially-expressed N1 EGF11-13 protein were used to stain the hJ1-expressing cells in the presence of various concentrations of mAbs.
The FACS-based binding assay using biotinylated soluble human N1 EGF11-13 recombinant protein bound to avidin-coated fluorescent beads to stain J1-expressing cells was performed using a dilution series of each variant mAb to test their ability to block J1 binding to N1 by FACS (Table 7). […] Thus 12/16 J1-65D1 variants V1-12 and all J1-183D variants have the desired binding and blocking activity.
Human N1 EGF11-13 (411-526) was expressed in E. coli, refolded in vitro and labelled with purple fluorescent avidin-coated beads (Spherotech) as previously described. HEK293 cells transfected with human J1 or B16F10 cells transfected with mouse J1 were stained with N1 fluorescent beads in the presence of J1 antibody supernatants or purified antibody (murine, chimeric or humanised) diluted in HBBS/10% FCS. Cells were washed and re-suspended in staining buffer before being analysed with a FACSCalibur and data analysis with CellQuest. HEK293 cells transfected with human Jagged 2 and B16F10 cells transfected with human and mouse DLL4 were stained similarly to test blocking specificity.

The nature of series [2]: Soluble aggregates of transiently expressed antibodies. The class given is physicochemical. Particulars: Protein A purified antibody. The source says:
The protein yield of these antibodies, their levels of soluble aggregates and their binding affinity to the immunogen (J1-DE3) are illustrated in (Table 6).

[3] abbreviates: final antibody concentration 0.2 μg/ml.
[4] abbreviates: final antibody concentration 0.4 μg/ml.
Where [5] appears, read: final antibody concentration 0.6 μg/ml.
Where [6] appears, read: final antibody concentration 1.0 μg/ml.

T1 sequence (P78504 34-1218): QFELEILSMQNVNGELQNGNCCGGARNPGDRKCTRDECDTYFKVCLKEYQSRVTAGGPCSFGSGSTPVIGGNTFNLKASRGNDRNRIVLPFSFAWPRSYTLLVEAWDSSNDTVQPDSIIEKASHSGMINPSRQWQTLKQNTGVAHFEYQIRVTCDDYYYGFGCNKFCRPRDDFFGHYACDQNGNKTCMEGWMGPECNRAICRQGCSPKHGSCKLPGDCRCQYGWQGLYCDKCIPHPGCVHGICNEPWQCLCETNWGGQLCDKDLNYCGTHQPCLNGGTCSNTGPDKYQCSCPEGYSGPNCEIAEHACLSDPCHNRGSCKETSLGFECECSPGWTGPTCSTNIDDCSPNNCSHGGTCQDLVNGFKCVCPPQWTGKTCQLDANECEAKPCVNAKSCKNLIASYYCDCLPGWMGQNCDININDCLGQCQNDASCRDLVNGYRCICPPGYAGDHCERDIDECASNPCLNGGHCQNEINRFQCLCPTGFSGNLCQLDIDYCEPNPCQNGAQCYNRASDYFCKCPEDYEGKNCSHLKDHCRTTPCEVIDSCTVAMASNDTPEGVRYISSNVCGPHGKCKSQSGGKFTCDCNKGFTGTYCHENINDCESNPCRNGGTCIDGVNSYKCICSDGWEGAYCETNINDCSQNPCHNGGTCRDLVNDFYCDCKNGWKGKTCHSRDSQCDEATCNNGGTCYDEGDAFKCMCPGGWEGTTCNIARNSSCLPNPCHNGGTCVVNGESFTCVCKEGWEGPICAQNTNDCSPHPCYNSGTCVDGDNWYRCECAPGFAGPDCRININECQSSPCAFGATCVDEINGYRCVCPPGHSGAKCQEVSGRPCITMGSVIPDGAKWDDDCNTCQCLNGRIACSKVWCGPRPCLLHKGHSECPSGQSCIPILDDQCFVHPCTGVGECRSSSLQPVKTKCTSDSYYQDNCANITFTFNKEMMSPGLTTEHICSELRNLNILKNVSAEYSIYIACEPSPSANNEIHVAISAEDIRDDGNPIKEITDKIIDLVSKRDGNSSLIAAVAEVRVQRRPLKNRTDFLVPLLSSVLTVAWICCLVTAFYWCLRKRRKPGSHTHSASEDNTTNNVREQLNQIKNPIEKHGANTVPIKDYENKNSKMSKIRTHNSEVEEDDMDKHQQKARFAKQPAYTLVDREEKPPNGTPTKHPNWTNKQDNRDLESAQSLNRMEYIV

B1: J1-183D chimeric: chimeric antibody with unaltered CDRs: J1-183D_VL + J1-183D_VH (antibody, V domains shown)
VH: QVQLQQPGTELVRPGVSVKISCKVSGYAFTDYAIHWIMQSHAKSLEWIGIINTYYGDSKYNQKFKDKATMTVDKSSNTAYMELARLTSEDSAIYYCARGYDGFAYWGQGTLVTVSS
VL: DIQLTQSPASLSASVGETVTFTCRTSENIYSYLTWYQQKQGKSPQLLVYNAKILAAGVPSRFSGYGSGTQFSLKINSLQPEDFGTYYCQHHYDIPWTFGGGTKLEIK
For B1, the “Blocking of Notch1 binding to cell surface Jagged 1” value (“Blocking of Notch1 binding” below) in series [1] (setting [3]) is “X”; in series [1] (setting [4]) it was “+ (Complete blocking)”; in series [1] (setting [5]), “+ (Complete blocking)”; in series [1] (setting [6]), “+ (Complete blocking)”. Also, the “% soluble aggregate” value in series [2] is given as 1.41%.

B2: J1-183D variant 2: humanised/de-immunised J1-183D: J1-183D_VL_1 + J1-183D_VH_2 (antibody, V domains shown)
VH: QVQLVQSGAELKKPGASVKVSCKVSGYAFTDYAIHWIRQAPGQGLEWMGIINTYYGDSKYAQKFQGRVTMTVDTSTSTAYMELSSLRSEDTAVYYCARGYDGFAYWGQGTLVTVSSASTKGP
VL: DIQMTQSPSSLSASVGDRVTITCRTSENIYSYLTWYQQKPGKAPKLLVYNAKILAAGVPSRFSGSGSGTDFTLTISSLQPEDFATYYCQHHYDIPWTFGGGTKLEIKRT
Turning to B2, the “Blocking of Notch1 binding” value in series [1] (setting [3]) is on record as “X”; in series [1] (setting [4]), “+ (Complete blocking)”; in series [1] (setting [5]), “+ (Complete blocking)”; in series [1] (setting [6]), “+ (Complete blocking)”. Further, the “% soluble aggregate” value in series [2] stood at 3.58%.

B3: J1-183D variant 3: humanised/de-immunised J1-183D: J1-183D_VL_1 + J1-183D_VH_3 (antibody, V domains shown)
VH: QVQLVQSGAELKKPGASVKVSCKVSGYAFTDYAIHWVRQAPGQGLEWMGIINTYYGDSKYAQKFQGRVTMTVDTSTSTAYMELSSLRSEDTAVYYCARGYDGFAYWGQGTLVTVSSASTKGP
VL: DIQMTQSPSSLSASVGDRVTITCRTSENIYSYLTWYQQKPGKAPKLLVYNAKILAAGVPSRFSGSGSGTDFTLTISSLQPEDFATYYCQHHYDIPWTFGGGTKLEIKRT
Consider B3, for which the “Blocking of Notch1 binding” value is “X” in series [1] (setting [3]), “+ (Complete blocking)” in series [1] (setting [4]), “+ (Complete blocking)” in series [1] (setting [5]) and “+ (Complete blocking)” in series [1] (setting [6]). For the same molecule, the “% soluble aggregate” value in series [2] was found to be 2.87%.

B4: J1-183D variant 6: humanised/de-immunised J1-183D: J1-183D_VL_2 + J1-183D_VH_2 (antibody, V domains shown)
VH: QVQLVQSGAELKKPGASVKVSCKVSGYAFTDYAIHWIRQAPGQGLEWMGIINTYYGDSKYAQKFQGRVTMTVDTSTSTAYMELSSLRSEDTAVYYCARGYDGFAYWGQGTLVTVSSASTKGP
VL: DIQMTQSPSSLSASVGDRVTITCRTSENIYSYLTWYQQKPGKAPKLLIYNAKTLASGVPSRFSGSGSGTDFTLTISSLQPEDFATYYCQHHYDIPWTFGGGTKLEIKRT
In the case of B4, the “Blocking of Notch1 binding” value in series [1] (setting [3]) is listed as “X”; in series [1] (setting [4]), “+ (Complete blocking)”; in series [1] (setting [5]) it was “+ (Complete blocking)”; in series [1] (setting [6]) it was “+ (Complete blocking)”. The “% soluble aggregate” value in series [2] is 4.6%.

B5: J1-183D variant 4: humanised/de-immunised J1-183D: J1-183D_VL_1 + J1-183D_VH_4 (antibody, V domains shown)
VH: QVQLVQSGAEVKKPGASVKVSCKASGYTFTDYAIHWVRQAPGQGLEWMGIINTYYGDSKYAQKFQGRVTMTVDTSTSTAYMELSSLRSEDTAVYYCARGYDGFAYWGQGTLVTVSSASTKGP
VL: DIQMTQSPSSLSASVGDRVTITCRTSENIYSYLTWYQQKPGKAPKLLVYNAKILAAGVPSRFSGSGSGTDFTLTISSLQPEDFATYYCQHHYDIPWTFGGGTKLEIKRT
For B5, the “Blocking of Notch1 binding” value in series [1] (setting [3]) is given as “X”; in series [1] (setting [4]) it was “+ (Complete blocking)”; in series [1] (setting [5]), “+ (Complete blocking)”; in series [1] (setting [6]), “+ (Complete blocking)”. Besides, the “% soluble aggregate” value in series [2] came out at 0.85%.

B6: J1-183D variant 10: humanised/de-immunised J1-183D: J1-183D_VL_3 + J1-183D_VH_2 (antibody, V domains shown)
VH: QVQLVQSGAELKKPGASVKVSCKVSGYAFTDYAIHWIRQAPGQGLEWMGIINTYYGDSKYAQKFQGRVTMTVDTSTSTAYMELSSLRSEDTAVYYCARGYDGFAYWGQGTLVTVSSASTKGP
VL: DIQMTQSPSSLSASVGDRVTITCRTSENIYSYLTWYQQKPGKAPKLLIYNAKILDSGVPSRFSGSGSGTDFTLTISSLQPEDFATYYCQHHYDIPWTFGGGTKLEIKRT
Take B6: the “Blocking of Notch1 binding” value in series [1] (setting [3]) is on record as “X”; in series [1] (setting [4]) it was “+ (Complete blocking)”; in series [1] (setting [5]), “+ (Complete blocking)”; in series [1] (setting [6]), “+ (Complete blocking)”. For the same molecule, the “% soluble aggregate” value in series [2] is given as 2.89%.

B7: J1-183D variant 7: humanised/de-immunised J1-183D: J1-183D_VL_2 + J1-183D_VH_3 (antibody, V domains shown)
VH: QVQLVQSGAELKKPGASVKVSCKVSGYAFTDYAIHWVRQAPGQGLEWMGIINTYYGDSKYAQKFQGRVTMTVDTSTSTAYMELSSLRSEDTAVYYCARGYDGFAYWGQGTLVTVSSASTKGP
VL: DIQMTQSPSSLSASVGDRVTITCRTSENIYSYLTWYQQKPGKAPKLLIYNAKTLASGVPSRFSGSGSGTDFTLTISSLQPEDFATYYCQHHYDIPWTFGGGTKLEIKRT
Turning to B7, the “Blocking of Notch1 binding” value in series [1] (setting [3]) is on record as “X”; in series [1] (setting [4]), “+ (Complete blocking)”; in series [1] (setting [5]), “+ (Complete blocking)”; in series [1] (setting [6]), “+ (Complete blocking)”. The “% soluble aggregate” value in series [2] worked out at 3.92%.

B8: J1-183D variant 5: humanised/de-immunised J1-183D: J1-183D_VL_2 + J1-183D_VH_1 (antibody, V domains shown)
VH: QVQLVQSGAELKKPGASVKVSCKVSGYAFTDYAIHWIRQAPGQGLEWMGIINTYYGDSKYNQKFKDRVTMTVDKSTSTAYMELSSLRSEDTAVYYCARGYDGFAYWGQGTLVTVSSASTKGP
VL: DIQMTQSPSSLSASVGDRVTITCRTSENIYSYLTWYQQKPGKAPKLLIYNAKTLASGVPSRFSGSGSGTDFTLTISSLQPEDFATYYCQHHYDIPWTFGGGTKLEIKRT
For B8, the “Blocking of Notch1 binding” value is on record as “X” in series [1] (setting [3]), “+ (Complete blocking)” in series [1] (setting [4]), “+ (Complete blocking)” in series [1] (setting [5]) and “+ (Complete blocking)” in series [1] (setting [6]). In addition, in series [2], the “% soluble aggregate” value was 4.38%.
